Experimental data from publication PMC12416549 (2024).
Positions count from the first letter of the chain named. Names may count otherwise.

T1: TNFR1 (Homo sapiens, UniProt P19438)
T1 chain: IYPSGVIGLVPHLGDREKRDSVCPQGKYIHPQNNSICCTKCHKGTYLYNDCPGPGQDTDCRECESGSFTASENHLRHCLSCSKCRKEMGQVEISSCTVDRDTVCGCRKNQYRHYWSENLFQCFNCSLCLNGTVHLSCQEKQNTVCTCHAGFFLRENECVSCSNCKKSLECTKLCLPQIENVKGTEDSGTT

B1: L64I (designed binder)
chain: MTLQELLREEALRRAEAEAFRYALELLAEKFPEQKEYLLDLAEEIESQIRSLSGVDVEDVRKFIDKEWAWVKELLAEHPAELAEVEAARAARLAELRAEVEAKVAA
B2: A80W (designed binder)
chain: B1 chain with I64L, A80W
B3: Q48R (designed binder)
chain: B1 chain with Q48R, I64L
B4: R92A (designed binder)
chain: B1 chain with I64L, R92A
B5: K35P (designed binder)
chain: B1 chain with K35P, I64L
B6: S51K (designed binder)
chain: B1 chain with S51K, I64L
B7: E58A (designed binder)
chain: B1 chain with E58A, I64L
B8: K72R (designed binder)
chain: B1 chain with I64L, K72R
B9: E58D (designed binder)
chain: B1 chain with E58D, I64L
B10: A83M (designed binder)
chain: B1 chain with I64L, A83M
B11: D65R (designed binder)
chain: B1 chain with I64L, D65R
B12: Q4R (designed binder)
chain: B1 chain with Q4R, I64L
B13: E9C (designed binder)
chain: B1 chain with E9C, I64L
B14: E81C (designed binder)
chain: B1 chain with I64L, E81C
B15: A19C (designed binder)
chain: B1 chain with A19C, I64L
B16: G54S (designed binder)
chain: B1 chain with G54S, I64L
B17: V71S (designed binder)
chain: B1 chain with I64L, V71S
B18: V57Q (designed binder)
chain: B1 chain with V57Q, I64L
B19: A42K (designed binder)
chain: B1 chain with A42K, I64L
B20: I49P (designed binder)
chain: B1 chain with I49P, I64L
B21: F31L (designed binder)
chain: B1 chain with F31L, I64L
B22: A42T (designed binder)
chain: B1 chain with A42T, I64L
B23: A42F (designed binder)
chain: B1 chain with A42F, I64L
B24: L6F (designed binder)
chain: B1 chain with L6F, I64L
B25: A69L (designed binder)
chain: B1 chain with I64L, A69L
B26: E36C (designed binder)
chain: B1 chain with E36C, I64L
B27: L74H (designed binder)
chain: B1 chain with I64L, L74H
B28: Y22L (designed binder)
chain: B1 chain with Y22L, I64L
B29: A87C (designed binder)
chain: B1 chain with I64L, A87C
B30: E95D (designed binder)
chain: B1 chain with I64L, E95D
B31: E99Y (designed binder)
chain: B1 chain with I64L, E99Y
B32: E67K (designed binder)
chain: B1 chain with I64L, E67K
B33: M1T (designed binder)
chain: B1 chain with M1T, I64L
B34: E5K (designed binder)
chain: B1 chain with E5K, I64L
B35: R50F (designed binder)
chain: B1 chain with R50F, I64L
B36: S51P (designed binder)
chain: B1 chain with S51P, I64L
B37: L3Q (designed binder)
chain: B1 chain with L3Q, I64L
B38: R21L (designed binder)
chain: B1 chain with R21L, I64L
B39: G54C (designed binder)
chain: B1 chain with G54C, I64L
B40: E86R (designed binder)
chain: B1 chain with I64L, E86R
B41: L64M (designed binder)
chain: B1 chain with I64M
B42: D56E (designed binder)
chain: B1 chain with D56E, I64L
B43: R97L (designed binder)
chain: B1 chain with I64L, R97L
B44: R61T (designed binder)
chain: B1 chain with R61T, I64L
B45: Y37H (designed binder)
chain: B1 chain with Y37H, I64L
B46: E18A (designed binder)
chain: B1 chain with E18A, I64L
B47: S53R (designed binder)
chain: B1 chain with S53R, I64L
B48: R50C (designed binder)
chain: B1 chain with R50C, I64L
B49: A90F (designed binder)
chain: B1 chain with I64L, A90F
B50: A76P (designed binder)
chain: B1 chain with I64L, A76P
B51: E43V (designed binder)
chain: B1 chain with E43V, I64L
B52: A87V (designed binder)
chain: B1 chain with I64L, A87V
B53: A83V (designed binder)
chain: B1 chain with I64L, A83V
B54: W70M (designed binder)
chain: B1 chain with I64L, W70M
B55: D59G (designed binder)
chain: B1 chain with D59G, I64L
B56: A105W (designed binder)
chain: B1 chain with I64L, A105W
B57: A28W (designed binder)
chain: B1 chain with A28W, I64L
B58: S51T (designed binder)
chain: B1 chain with S51T, I64L
B59: A80V (designed binder)
chain: B1 chain with I64L, A80V

Molecular target: T1, TNFR1
Assay: yeast display SC50

Binder	apparent Kd (screen)
B1	1.16 nM
B2	0.446 nM
B3	1.86 nM
B4	0.956 nM
B5	2.73 nM
B6	1.27 nM
B7	0.718 nM
B8	0.869 nM
B9	0.539 nM
B10	0.593 nM
B11	0.718 nM
B12	0.49 nM
B13	0.405 nM
B14	0.79 nM
B15	0.49 nM
B16	0.956 nM
B17	2.48 nM
B18	0.869 nM
B19	3.99 nM
B20	24.4 nM

Binder	apparent Kd (screen)
B21	0.869 nM
B22	1.05 nM
B23	3.3 nM
B24	2.05 nM
B25	0.49 nM
B26	0.539 nM
B27	0.79 nM
B28	0.718 nM
B29	0.446 nM
B30	0.593 nM
B31	0.718 nM
B32	2.73 nM
B33	0.49 nM
B34	0.539 nM
B35	1.16 nM
B36	0.593 nM
B37	22.2 nM
B38	0.653 nM
B39	24.4 nM
B40	1.27 nM

Binder	apparent Kd (screen)
B41	0.653 nM
B42	0.593 nM
B43	0.653 nM
B44	0.593 nM
B45	11.4 nM
B46	0.718 nM
B47	2.05 nM
B48	0.539 nM
B49	0.869 nM
B50	2.05 nM
B51	0.539 nM
B52	0.539 nM
B53	0.718 nM
B54	13.8 nM
B55	0.653 nM
B56	0.869 nM
B57	10.4 nM
B58	0.405 nM
B59	0.869 nM
